Experimental data: US20060088890A1

What was measured:
[1] = biological target: angiotensin converting enzyme (ACE) (human) (UniProt P12821); test: indirect immunofluorescence flow cytometry, Nalm-6 cells, BB9 at 20 µg/mL; grade = proportion of positive cells
[2] = biological target: angiotensin converting enzyme (ACE) (human) (UniProt P12821); test: indirect immunofluorescence flow cytometry, K562 cells, BB9 at 20 µg/mL; grade = proportion of positive cells
[3] = biological target: angiotensin converting enzyme (ACE) (human) (UniProt P12821); test: indirect immunofluorescence flow cytometry, U937 cells, BB9 at 20 µg/mL; grade = proportion of positive cells
[4] = biological target: angiotensin converting enzyme (ACE) (human) (UniProt P12821); test: indirect immunofluorescence flow cytometry, HL60 cells, BB9 at 20 µg/mL; grade = proportion of positive cells
[5] = biological target: angiotensin converting enzyme (ACE) (human) (UniProt P12821); test: indirect immunofluorescence flow cytometry, dermal fibroblasts, BB9 at 20 µg/mL; grade = proportion of positive cells
[6] = biological target: angiotensin converting enzyme (ACE) (human) (UniProt P12821); test: indirect immunofluorescence flow cytometry, KG-1 cells, BB9 at 20 µg/mL; grade = proportion of positive cells
[7] = biological target: angiotensin converting enzyme (ACE) (human) (UniProt P12821); test: indirect immunofluorescence flow cytometry, UT7 cells, BB9 at 20 µg/mL; grade = proportion of positive cells
[8] = biological target: angiotensin converting enzyme (ACE) (human) (UniProt P12821); test: indirect immunofluorescence flow cytometry, MG63 cells, BB9 at 20 µg/mL; grade = proportion of positive cells
[9] = biological target: angiotensin converting enzyme (ACE) (human) (UniProt P12821); test: indirect immunofluorescence flow cytometry, MEG-01 cells, BB9 at 20 µg/mL; grade = proportion of positive cells
[10] = biological target: angiotensin converting enzyme (ACE) (human) (UniProt P12821); test: indirect immunofluorescence flow cytometry, RC2A cells, BB9 at 20 µg/mL; grade = proportion of positive cells
[11] = biological target: angiotensin converting enzyme (ACE) (human) (UniProt P12821); test: indirect immunofluorescence flow cytometry, MCF-7 cells, BB9 at 20 µg/mL; grade = proportion of positive cells
[12] = biological target: angiotensin converting enzyme (ACE) (human) (UniProt P12821); test: indirect immunofluorescence flow cytometry, Hi MEG cells, BB9 at 20 µg/mL; grade = proportion of positive cells
[13] = biological target: angiotensin converting enzyme (ACE) (human) (UniProt P12821); test: indirect immunofluorescence flow cytometry, HEL-DR cells, BB9 at 20 µg/mL; grade = proportion of positive cells

UniProt P12821, sequence (P12821 30-1306): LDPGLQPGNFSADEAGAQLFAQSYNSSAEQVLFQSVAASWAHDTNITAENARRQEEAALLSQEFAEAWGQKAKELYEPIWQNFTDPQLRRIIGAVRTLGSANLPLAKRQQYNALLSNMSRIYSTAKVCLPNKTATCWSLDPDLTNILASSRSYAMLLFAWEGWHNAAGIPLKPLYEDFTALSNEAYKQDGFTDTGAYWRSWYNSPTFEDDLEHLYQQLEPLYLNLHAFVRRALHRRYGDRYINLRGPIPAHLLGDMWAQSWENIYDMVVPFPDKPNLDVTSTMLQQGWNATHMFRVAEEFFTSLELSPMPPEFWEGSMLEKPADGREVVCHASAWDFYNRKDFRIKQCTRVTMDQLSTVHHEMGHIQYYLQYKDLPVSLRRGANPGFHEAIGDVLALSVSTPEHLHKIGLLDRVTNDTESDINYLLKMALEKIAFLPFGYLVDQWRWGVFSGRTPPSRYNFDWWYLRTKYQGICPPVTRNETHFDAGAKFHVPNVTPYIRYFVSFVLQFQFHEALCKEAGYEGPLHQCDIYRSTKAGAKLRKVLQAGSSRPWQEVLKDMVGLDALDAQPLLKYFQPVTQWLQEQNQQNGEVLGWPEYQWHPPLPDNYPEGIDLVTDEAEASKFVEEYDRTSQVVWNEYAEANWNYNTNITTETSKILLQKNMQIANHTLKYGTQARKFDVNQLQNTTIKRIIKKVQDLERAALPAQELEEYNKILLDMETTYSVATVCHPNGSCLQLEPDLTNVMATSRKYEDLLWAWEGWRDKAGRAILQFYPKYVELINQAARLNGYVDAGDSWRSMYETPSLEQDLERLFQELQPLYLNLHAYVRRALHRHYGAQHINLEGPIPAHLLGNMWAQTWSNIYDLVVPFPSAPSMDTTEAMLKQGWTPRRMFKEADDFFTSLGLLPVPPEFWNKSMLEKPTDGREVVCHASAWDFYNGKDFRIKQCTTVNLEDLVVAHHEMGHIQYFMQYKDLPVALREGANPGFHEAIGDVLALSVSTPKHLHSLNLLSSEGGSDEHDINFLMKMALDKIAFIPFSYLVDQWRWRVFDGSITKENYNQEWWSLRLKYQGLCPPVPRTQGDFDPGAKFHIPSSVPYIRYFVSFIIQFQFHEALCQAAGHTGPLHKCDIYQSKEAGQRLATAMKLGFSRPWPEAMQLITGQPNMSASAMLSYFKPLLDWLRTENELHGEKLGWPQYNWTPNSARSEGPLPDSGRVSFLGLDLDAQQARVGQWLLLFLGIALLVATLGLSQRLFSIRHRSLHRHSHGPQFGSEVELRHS

proportion of BB9 positive cells [1]: 5 to 35%
proportion of BB9 positive cells [2]: 35 to 80%
proportion of BB9 positive cells [3]: 5 to 35%
proportion of BB9 positive cells [4]: 35 to 80%
proportion of BB9 positive cells [5]: 80 to 100%
proportion of BB9 positive cells [6]: 5 to 35%
proportion of BB9 positive cells [7]: 35 to 80%
proportion of BB9 positive cells [8]: 35 to 80%
proportion of BB9 positive cells [9]: 35 to 80%
proportion of BB9 positive cells [10]: 5 to 35%
proportion of BB9 positive cells [11]: 5 to 35%
proportion of BB9 positive cells [12]: 5 to 35%
proportion of BB9 positive cells [13]: 35 to 80%
Substance: monoclonal antibody BB9
